{"source": "paper PMC6237974", "key": {"[1]": {"test_system": "VgrR-P (phosphorylated by VgrS + ATP) (Xanthomonas campestris pv. campestris 8004)", "experiment": "MST", "settings": "MST: 50 mM Tris-HCl pH 7.4, 150 mM NaCl, 10 mM MgCl2, 0.05% Tween-20; EMSA: 10 mM Tris-HCl pH 7.5, 50 mM KCl, 1 mM DTT, 50 ng poly(dI:dC), 10 mM EDTA, 28 C"}, "[2]": {"target": "cytoplasmic region of VgrS that contained the HAMP and transmitter regions (Xanthomonas campestris pv. campestris 8004)", "experiment": "not stated; Supplementary Fig. 4b and 4c; Prc with the cytoplasmic region of VgrS"}, "VgrS sensor": {"target": "VgrS sensor", "experiment": "SPR"}, "[3]": {"target": "VgrS sensor (Xanthomonas campestris pv. campestris 8004)", "experiment": "SPR; Biacore 3000, VgrS sensor trapped on a CM5 chip, Prc forms injected at 30 μl/min, 25 °C, PBST pH 7.4"}, "[4]": {"target": "Prc^S475A monomer (Xanthomonas campestris pv. campestris 8004)", "experiment": "SEC + AUC; Prc^S475A separated by gel filtration; sedimentation velocity of each peak at 20 °C, sodium phosphate buffer pH 8.0 plus 150 mM NaCl"}, "[5]": {"target": "VgrS sensor (Xanthomonas campestris pv. campestris 8004)", "experiment": "MST; VgrS sensor labelled with NT-647, titrated with Prc forms in NTA buffer (300 mM NaCl, 50 mM sodium phosphate, pH 7.0) with 0.05% Tween; Monolith NT.115; three replicates"}}, "data": [{"substance": "PXC_3300 promoter probe", "values": [{"measurement": "Kd", "setting": "[1]", "value": 30.7, "unit": "µM"}]}, {"substance": "Prc (form not told, binding to the cytoplasmic region of VgrS) (enzyme)", "values": [{"measurement": "Kd", "setting": "[2]", "value": 191, "unit": "µM"}]}, {"substance": "Prc^S475A monomer", "values": [{"measurement": "Ka", "setting": "VgrS sensor; enzyme", "value": 29500, "unit": "M⁻¹"}, {"measurement": "koff", "setting": "VgrS sensor; enzyme", "value": 0.00842, "unit": "s⁻¹"}]}, {"substance": "Prc^S475A monomer (enzyme)", "values": [{"measurement": "Kd", "setting": "[3]", "value": 33.9, "unit": "µM"}, {"measurement": "stoichiometry N", "setting": "[4]", "value": 3}, {"measurement": "Kd", "setting": "[5]", "value": 0.65, "unit": "µM"}]}, {"substance": "PrcΔPDZ^S475A (enzyme)", "values": [{"measurement": "Kd", "setting": "[5]", "value": 1.95, "unit": "µM"}]}, {"substance": "recombinant Prc^S475A containing peptidase and DUF regions", "values": [{"measurement": "Ka", "setting": "VgrS sensor; domain or fragment", "value": 44700, "unit": "M⁻¹"}]}, {"substance": "recombinant Prc^S475A containing peptidase and DUF regions (domain or fragment)", "values": [{"measurement": "Kd", "setting": "[3]", "value": 22.4, "unit": "µM"}, {"measurement": "Kd", "setting": "[5]", "value": 0.27, "unit": "µM"}]}]}
